Results: patent US20160185857A1 (published 2016)

T1: recombinant soluble human FcγRIIB (UniProt P31994 43-217)
T1 chain: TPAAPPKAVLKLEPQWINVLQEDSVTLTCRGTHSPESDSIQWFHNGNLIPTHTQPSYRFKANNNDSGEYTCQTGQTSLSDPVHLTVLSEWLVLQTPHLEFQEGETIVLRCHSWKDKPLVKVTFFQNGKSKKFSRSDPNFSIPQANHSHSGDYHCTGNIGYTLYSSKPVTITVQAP


Molecular target: T1, recombinant soluble human FcγRIIB
Test: SPR

Binder	koff
chGB3_N297A (chimeric GB3, prior art antibody of WO 2005/051999, N297A format) (antibody, V domains shown) VH: VQLQQSGPELVKPGASVKISCKASGYTFTDYYIYWVKQWPGQGLEWIGWIFPGTGNTYYNENFKDKATLTIDRSSSTAYMLLGSLTSEDSAVYFCYGPFAYWGQ VL: RIQLTQSPSSLSASLGERVSLTCRASQEISGYLSWLQQKPDGTIKRLIYATSALDSGVPKRFSGSGSGSNYSLTISSLESEDFADYYCLQYANYPYTFGGGTKL	0.01 s⁻¹
ch8A6_wt (antibody) chain 1: EVQLVESGGDLVQPGRSLRLSCAASGFTFSDYYMAWVRQAPKKGLEWVASISSDGSNTYYGDSVKGRFTISRDNTRSNLYLQMNSLRSEDTATYYCARPGDYWGQGVMVTVSS chain 2: NIVMTQSPTSMFISVGDRVTMNCKASQNVGTYVDWFQQKTGQSPTLLIFGASNRYTGVPDRFTGSGSGTDFTLSISNMQAEDLAVYYCLQYNYHPYTFGPGTTLELKR	0.00049 s⁻¹
